Test results from patent publication US20240269276A1.
pEC50: −log10 of the molar value. Like-named read-outs stand apart in the source and are kept apart here.

What was measured:
[1] = molecular target: cynomolgus monkey PD-L1 on CHO-K1 cells overexpressing cynomolgus monkey PD-L1 (cynomolgus monkey) (UniProt G7PSE7); assay: flow cytometry on CHO-K1 cells overexpressing cynomolgus monkey PD-L1 (CHO-K1/cynoPD-L1); isotype control, EC50 given as N.A.
[2] = molecular target: human PD-L1 on CHO-K1 cells overexpressing human PD-L1 (human) (UniProt Q9NZQ7); assay: flow cytometry on CHO-K1 cells overexpressing human PD-L1 (CHO-K1/hPD-L1); isotype control, fit value printed for a curve that stays at the baseline [continued) D]
Sequence of human PD-L1 on CHO-K1 cells overexpressing human PD-L1 (human) (Q9NZQ7 19-290): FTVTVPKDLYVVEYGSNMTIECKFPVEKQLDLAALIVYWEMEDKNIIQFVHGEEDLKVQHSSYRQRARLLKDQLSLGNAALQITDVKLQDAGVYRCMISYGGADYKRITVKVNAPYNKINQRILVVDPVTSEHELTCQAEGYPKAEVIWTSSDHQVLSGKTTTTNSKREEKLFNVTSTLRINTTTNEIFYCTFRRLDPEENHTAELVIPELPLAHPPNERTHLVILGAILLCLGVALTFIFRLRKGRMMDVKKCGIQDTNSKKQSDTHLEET

[3] = molecular target: human PD-L1 on CHO-K1 cells overexpressing human PD-L1 (human) (UniProt Q9NZQ7); assay: flow cytometry on CHO-K1 cells overexpressing human PD-L1 (CHO-K1/hPD-L1); isotype control, EC50 given as N.A.
[4] = molecular target: human PD-L1 on CHO-K1 cells overexpressing human PD-L1 (human) (UniProt Q9NZQ7); assay: flow cytometry on CHO-K1 cells overexpressing human PD-L1 (CHO-K1/hPD-L1); isotype control [continued) D]
[5] = molecular target: cynomolgus monkey PD-L1 on CHO-K1 cells overexpressing cynomolgus monkey PD-L1 (cynomolgus monkey) (UniProt G7PSE7); assay: flow cytometry on CHO-K1 cells overexpressing cynomolgus monkey PD-L1 (CHO-K1/cynoPD-L1); isotype control, EC50 given as N.A.; remark: listed apart in the source
[6] = molecular target: cynomolgus monkey PD-L1 on CHO-K1 cells overexpressing cynomolgus monkey PD-L1 (cynomolgus monkey) (UniProt G7PSE7); assay: as above; remark: listed apart in the source

Sequence of cynomolgus monkey PD-L1 on CHO-K1 cells overexpressing cynomolgus monkey PD-L1 (cynomolgus monkey) (G7PSE7 entry or part of it limits assumed): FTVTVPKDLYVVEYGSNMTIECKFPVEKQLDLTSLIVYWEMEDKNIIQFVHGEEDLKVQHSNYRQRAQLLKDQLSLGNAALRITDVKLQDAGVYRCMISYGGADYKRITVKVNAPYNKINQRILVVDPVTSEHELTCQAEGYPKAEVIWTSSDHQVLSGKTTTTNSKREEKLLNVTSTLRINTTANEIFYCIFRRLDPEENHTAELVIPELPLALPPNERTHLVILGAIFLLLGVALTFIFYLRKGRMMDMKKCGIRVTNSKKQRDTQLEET

hIgG1 (antibody)
Maximum MFI [1]: 112 MFI | pEC50 [2]: 7.12 | Maximum MFI [3]: 86 MFI | Maximum MFI [4]: 595 MFI | Maximum MFI [5]: 123 MFI | Maximum MFI [6]: 125 MFI
